Test results as given in patent US20260001953A1 (TWIST BIOSCIENCE, published 2026).

T1: mouse CD117 (mouse, UniProt P05532)
T1 construct: antigen of the Carterra SPR kinetics; also called murine CD117
T1 sequence (receptor, looked up): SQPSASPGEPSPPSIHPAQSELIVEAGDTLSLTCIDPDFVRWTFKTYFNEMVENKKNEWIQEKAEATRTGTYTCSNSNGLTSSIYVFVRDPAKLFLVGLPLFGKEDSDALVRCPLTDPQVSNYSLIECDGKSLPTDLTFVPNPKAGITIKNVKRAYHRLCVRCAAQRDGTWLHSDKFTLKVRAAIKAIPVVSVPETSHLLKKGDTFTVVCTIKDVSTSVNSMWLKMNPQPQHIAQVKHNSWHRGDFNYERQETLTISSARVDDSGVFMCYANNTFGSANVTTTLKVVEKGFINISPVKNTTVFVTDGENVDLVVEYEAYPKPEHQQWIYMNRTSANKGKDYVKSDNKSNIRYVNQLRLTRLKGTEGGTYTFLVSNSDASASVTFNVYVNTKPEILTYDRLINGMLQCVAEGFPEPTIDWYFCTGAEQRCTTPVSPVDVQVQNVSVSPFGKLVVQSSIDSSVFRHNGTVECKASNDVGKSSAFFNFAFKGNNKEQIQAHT


Legend:
[1] = biological target: T2, CD117 transiently expressed on Expi293 cells (UniProt P10721 26-976, limits assumed); assay: FACS, MFI expressing / parental cells
T2 construct: whole, on cells; Two cassettes are described (P2A mVenus and direct mVenus fusion); also called CD117 transient cells; the transient cell line

[2] = biological target: T3, cyno CD117 (Macaca fascicularis, UniProt A0A7N9CP24); assay: Carterra SPR, cyno CD117
T3 construct: antigen of the Carterra SPR kinetics; also called cynomolgus monkey CD117
Method: (§1) To further evaluate the antibodies discovered during the screens, 21 clones were selected for detailed characterization and were analyzed for target binding kinetics by a Carterra SPR instrument. The binding kinetics of the anti-CD117 antibodies for human CD117, cynomolgus monkey CD117, and murine CD117 are shown in FIG. 29A-29B.

[3] = biological target: T2, CD117 transiently expressed on Expi293 …; assay: FACS cell binding, Expi293 transiently expressing CD117
[4] = biological target: CD117-GFP transiently overexpressed in HEK293T cells (UniProt P10721 26-976); assay: cell-based or functional assay
[5] = biological target: T1, mouse CD117; assay: Carterra SPR, mouse CD117
Method: as §1

[6] = biological target: T2, CD117 transiently expressed on Expi293 …; assay: flow cytometry titration on CD117 transient cells and on parental Expi293
Method: The transient expression of CD117 was validated with a control antibody, Expi293 (FIGS. 17A-17B). Expi293, […], was transiently transfected with CD117 48-hours post-transfection. The secondary antibody used was APC Goat anti-human IgG (diluted 1:400). 100,000 cells per well were blocked with 1×PBS+0.5% BSA for 1 hour, stained with 100 μL of the primary antibody for 1 hour, and stained with the secondary antibody for one hour, all with 3× washes in between each staining.

[7] = biological target: T4, Cluster of differentiation 117 (CD117), antigen of epitope binning and ELISA (UniProt P10721 26-520, limits assumed); assay: Carterra SPR, human CD117
T4 construct: also called tyrosine-protein kinase KIT; mast/stem cell growth factor receptor (SCFR)
Method: as §1

[8] = biological target: Sialic acid-binding immunoglobulin-like lectin 8 (SIGLEC-8), antigen of the Carterra SPR studies (UniProt Q9NYZ4 17-363, limits assumed); assay: Carterra SPR kinetics, sensorgram panel
Method in brief: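 Antibodies came from synthetic antibody libraries, panned over four rounds with a bead-based strategy and screened by clonal ELISA. Chosen clones were expressed and purified before testing. Their binding kinetics to SIGLEC-8 were then measured by surface plasmon resonance on a Carterra instrument, giving rate constants and dissociation constants.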

[9] = biological target: T5, SIGLEC-8 transiently expressed on cells (UniProt Q9NYZ4 17-499, limits assumed); assay: cell binding titration, transient SIGLEC-8 line
T5 construct: whole, on cells; Two cassettes are described (P2A mVenus and direct mVenus fusion); also called the transient line; pTT5-SIGLEC-8 P2A mVenus
T5 sequence (Q9NYZ4 17-499 limits assumed): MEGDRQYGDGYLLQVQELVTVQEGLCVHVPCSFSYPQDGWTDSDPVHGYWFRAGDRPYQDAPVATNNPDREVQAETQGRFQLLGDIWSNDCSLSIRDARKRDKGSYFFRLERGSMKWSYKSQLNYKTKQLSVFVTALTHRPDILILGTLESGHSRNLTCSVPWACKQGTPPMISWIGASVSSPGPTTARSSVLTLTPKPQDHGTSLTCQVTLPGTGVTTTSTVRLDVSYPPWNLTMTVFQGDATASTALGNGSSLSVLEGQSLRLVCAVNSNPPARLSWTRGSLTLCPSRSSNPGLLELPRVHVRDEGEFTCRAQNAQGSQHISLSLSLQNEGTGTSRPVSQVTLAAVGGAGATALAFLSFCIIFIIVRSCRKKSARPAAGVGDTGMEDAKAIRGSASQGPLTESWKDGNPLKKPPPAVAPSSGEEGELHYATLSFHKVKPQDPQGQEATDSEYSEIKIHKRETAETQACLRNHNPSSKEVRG

T4 sequence (P10721 26-520 limits assumed): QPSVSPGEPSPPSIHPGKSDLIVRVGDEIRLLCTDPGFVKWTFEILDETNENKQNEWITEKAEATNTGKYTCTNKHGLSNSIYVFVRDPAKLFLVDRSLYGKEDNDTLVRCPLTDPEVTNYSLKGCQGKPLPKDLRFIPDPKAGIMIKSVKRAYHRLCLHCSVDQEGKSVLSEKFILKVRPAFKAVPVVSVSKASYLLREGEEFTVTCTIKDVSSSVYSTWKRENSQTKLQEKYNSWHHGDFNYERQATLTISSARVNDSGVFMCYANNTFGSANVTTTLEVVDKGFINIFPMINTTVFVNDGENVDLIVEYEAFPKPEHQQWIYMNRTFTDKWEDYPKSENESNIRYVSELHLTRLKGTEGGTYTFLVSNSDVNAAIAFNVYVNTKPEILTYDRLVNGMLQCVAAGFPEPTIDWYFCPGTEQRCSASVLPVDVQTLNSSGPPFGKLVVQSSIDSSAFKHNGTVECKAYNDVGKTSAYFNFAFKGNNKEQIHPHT
T3 sequence (A0A7N9CP24 entry or part of it): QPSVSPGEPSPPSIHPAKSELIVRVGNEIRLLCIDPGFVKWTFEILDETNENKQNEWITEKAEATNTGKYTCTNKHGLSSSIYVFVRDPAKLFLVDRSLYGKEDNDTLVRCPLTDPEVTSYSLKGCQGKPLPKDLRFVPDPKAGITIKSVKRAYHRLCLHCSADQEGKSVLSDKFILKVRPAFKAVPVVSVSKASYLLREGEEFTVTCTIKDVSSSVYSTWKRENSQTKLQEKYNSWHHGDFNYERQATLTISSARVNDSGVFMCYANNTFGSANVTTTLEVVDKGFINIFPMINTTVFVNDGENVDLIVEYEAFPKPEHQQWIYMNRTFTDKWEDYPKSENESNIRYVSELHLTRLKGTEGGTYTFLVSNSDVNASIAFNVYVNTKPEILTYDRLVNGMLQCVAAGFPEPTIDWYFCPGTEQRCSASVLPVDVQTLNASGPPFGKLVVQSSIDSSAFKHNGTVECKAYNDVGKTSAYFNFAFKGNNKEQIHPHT
T2 sequence (P10721 26-976 limits assumed): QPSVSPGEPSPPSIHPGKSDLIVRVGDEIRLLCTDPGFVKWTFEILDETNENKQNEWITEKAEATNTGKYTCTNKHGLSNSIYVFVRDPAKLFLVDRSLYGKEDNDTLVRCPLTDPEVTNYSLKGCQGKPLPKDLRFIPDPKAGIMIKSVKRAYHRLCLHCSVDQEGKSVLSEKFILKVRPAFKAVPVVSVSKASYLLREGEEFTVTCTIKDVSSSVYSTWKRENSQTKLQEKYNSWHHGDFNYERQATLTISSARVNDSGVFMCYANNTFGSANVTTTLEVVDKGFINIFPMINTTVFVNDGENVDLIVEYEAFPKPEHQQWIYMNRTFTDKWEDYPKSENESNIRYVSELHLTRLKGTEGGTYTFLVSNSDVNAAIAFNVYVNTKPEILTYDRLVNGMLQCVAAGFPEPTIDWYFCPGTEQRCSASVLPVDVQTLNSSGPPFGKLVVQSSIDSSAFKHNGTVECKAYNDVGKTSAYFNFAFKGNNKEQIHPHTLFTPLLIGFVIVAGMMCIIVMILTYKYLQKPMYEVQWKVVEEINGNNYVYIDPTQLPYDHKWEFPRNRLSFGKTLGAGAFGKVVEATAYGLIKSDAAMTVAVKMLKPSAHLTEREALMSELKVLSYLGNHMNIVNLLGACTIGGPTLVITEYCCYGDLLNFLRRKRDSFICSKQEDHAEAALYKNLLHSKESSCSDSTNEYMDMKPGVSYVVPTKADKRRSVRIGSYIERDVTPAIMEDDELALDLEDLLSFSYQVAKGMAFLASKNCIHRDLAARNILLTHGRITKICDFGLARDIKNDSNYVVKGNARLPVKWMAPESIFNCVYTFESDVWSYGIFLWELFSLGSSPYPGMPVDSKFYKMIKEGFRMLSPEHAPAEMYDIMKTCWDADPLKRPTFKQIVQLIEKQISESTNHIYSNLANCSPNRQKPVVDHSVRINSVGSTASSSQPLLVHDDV
Chain of Sialic acid-binding immunoglobulin-like lectin 8 (SIGLEC-8), antigen of the Carterra SPR studies (Q9NYZ4 17-363 limits assumed): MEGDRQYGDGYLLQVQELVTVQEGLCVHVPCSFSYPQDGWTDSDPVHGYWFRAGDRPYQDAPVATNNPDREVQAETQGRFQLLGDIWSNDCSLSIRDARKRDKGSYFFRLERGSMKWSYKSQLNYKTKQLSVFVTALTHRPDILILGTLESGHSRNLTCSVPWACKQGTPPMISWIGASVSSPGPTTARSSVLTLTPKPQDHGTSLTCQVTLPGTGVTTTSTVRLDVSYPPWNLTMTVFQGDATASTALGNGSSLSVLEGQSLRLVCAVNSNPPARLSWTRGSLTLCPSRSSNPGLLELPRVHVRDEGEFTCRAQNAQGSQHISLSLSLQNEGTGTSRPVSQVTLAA

MFI Ratio [1] | Kd [2] | koff [2] | kon [2] | EC50 [3] | IC50, inhibition of the SCF-stimulated SRF reporter signal (FFLuc/RLuc); same row prints log(IC50) -9.344 and Span -0.2266 [4] | Kd [5] | koff [5] | kon [5] | EC50 (read off the curve) [6] | Kd [7] | koff [7] | kon [7] | binding result [8] | EC50 [9] | Binder
30.7 | 607 nM | 0.201 s⁻¹ | 331000 M⁻¹ s⁻¹ | 0.742 nM | 4.53e-10 M | 13.7 nM | 0.00222 s⁻¹ | 161000 M⁻¹ s⁻¹ | ~1 nM | 208 nM | 0.136 s⁻¹ | 655000 M⁻¹ s⁻¹ |  |  | CD117-2 (antibody, human IgG1, kappa, V domains shown, detected with anti-human IgG in FACS) VH: EVQLLESGVGLVQPGGSLRLSCAASGFSFGSYAMSWVRQAPGKGLEWVSSISGSGGTTYYADSVKGRFTISRDNSKNTLYLQMNSLRAEDTAVYYCARDPDDYGDYYFDYWGQGTLVTVSS VL: DIQMTQSPSSLSASVGDRVTITCRASQSIGEYLNWYQQKPGKAPKLLIYATSSLQRGVPSRFSGSGSGTDFTLTISSLQPEDFATYYCQQSHTTPYTFGGGTKVEIKR
 |  |  |  |  |  |  |  |  |  |  |  |  | no binding | 904 nM | SIGLEC-8-27 (antibody, human IgG1, kappa, V domains shown, tested as expressed and purified mAb) VH: EVQLLESGGGLVQPGGSLRLSCAASGFTFSNHVMSWVRQAPGKGLEWVSAISGSGASTYYADSVKGRFTISRDNSKNTLYLQMNSLRAEDTAVYYCARAPIAVAGTADHWGQGTLVTVSS VL: DIQMTQSPSSLSASVGDRVTITCRASQSIGSDLNWYQQKPGKAPKLLIYGASRLESGVPSRFSGSGSGTDFTLTISSLQPEDFATYYCQQTFTNTPLTFGGGTKVEIKR
